These results are taken from patent US20120015347A1.

Assay [1] concerns the target HEL-Dylight488 conjugate (hen egg lysozyme labeled with Dylight488) (chicken) (UniProt P00698). The assay is described as follows: microfluidic fluorescence bead assay; mAb captured on rabbit anti-mouse pAb Protein A beads, labeled antigen in flow.
The target of assay [2] is HEL-Dylight633 conjugate (hen egg lysozyme labeled with Dylight633) (chicken) (UniProt P00698). The assay is described as follows: microfluidic fluorescence bead assay; compared with D1.3 mAb on HEL.
The target is the same in assay [3]. Briefly: microfluidic fluorescence bead assay; mAb captured on rabbit anti-mouse pAb Protein A beads, labeled antigen in flow.

Consider “D1.3 mouse monoclonal antibody (mAb) to lysozyme”, for which, in assay [1], the Kd is 1.2 nM.
With “HyHEL-5 mouse monoclonal antibody to lysozyme”, in assay [2], the fold larger association rate constant than D1.3 mAb was 4 fold, the fold smaller dissociation rate constant than D1.3 mAb worked out at 10 fold and the fold smaller equilibrium dissociation constant than D1.3 was determined as 40 fold. In assay [3], this substance showed a Kd of 0.03 nM, a koff of 0.000169 s⁻¹ and a kon of 5.75e+06 M⁻¹ s⁻¹.
